Test results: the supplement of paper PMC9170038

Test system: MS2 coat protein
Test: apparent KD of MS2 coat protein; designed switch direction (-1 OFF switch, 1 ON switch): -1; higher = weaker reporter binding
Summary of the method: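 Normalised cluster fluorescence was curve-fitted, and each design's median over clusters is its apparent KD. Before this, SNAP-549-labelled MS2 coat protein was titrated from 0.7 or 1.5 nM, doubling to 3 µM, over RNA switches transcribed on Illumina chips by stalled E. coli RNA polymerase. Titrations had no input, 200 uM small-molecule ligand, or an oligonucleotide input, and steps lasted 0.8–1.5 h (lowest) to 10–20 min (highest).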

[1] = input ligand: microRNA oligo, concentration not stated
[2] = Eterna round: R95, input ligand: microRNA oligo, concentration not stated
[3] = Eterna round: R95, input ligand: FMN 200 uM
[4] = Eterna round: R95, input ligand: none

| Sequence | apparent KD of MS2 coat protein (input ligand: FMN 200 uM) [nM] | apparent KD of MS2 coat protein (input ligand: none) [nM] | apparent KD of MS2 coat protein [2] [nM] | further results |
| --- | --- | --- | --- | --- |
| GUCUGGUUAGGAUAUACAGUGUCCACGAGUUAGUUGCCCUAACAUGAGGAUCACCCAUGUAGAAGGAGCGAGAA [Erisared] (Eterna round: R96, puzzle: Exclusion 2) | 22.7 | 16.6 |  | apparent KD of MS2 coat protein [1]: 13.3 nM |
| GUGAAACAUGAGGAUCACCCAUGUCAGGAUAUGAUACUAUGUACUUCGGUACAUAGUAUCAGAAGGGACAGUGA [Ex1-3: 3] (puzzle: Exclusion 1) |  |  | 74.4 |  |
| GUGAAACAUGAGGAUCACCCAUGUCAGGAUAUGCAUCCAGUUCACCUAUAAAGACGGUGUAGAAGGGACAAUAA [Eternabot (Original) Solution 7] (Eterna round: R97, puzzle: Exclusion 1) | 22.4 | 21.3 |  |  |
| GUGAAGAAGUUAGUGGCCUACAUGAGGAUCACCCAUGUGAGGGAAAUGUCGAGGCGGAGGUUGUGUGCUCGUCUGUA [JR_SV3TOV1_Sub041] (puzzle: Sensor v3, turn-off variant 1) |  |  | 27.6 | apparent KD of MS2 coat protein [3]: 25.7 nM; apparent KD of MS2 coat protein [4]: 26.4 nM |
| GUGAAGUGAGGAUAUACGAGAGAGGCUGAACCUGGAGAGAAGUAGAAGGCACAUGAGGAUCACCCAUGUAAGGA [JR_Exclu4_Sub020] (puzzle: Exclusion 4) |  |  | 36.1 | apparent KD of MS2 coat protein [3]: 36.7 nM; apparent KD of MS2 coat protein [4]: 34.4 nM |
| GUGAGGUAAGGAUAUAGGAGAAAAGAUAAGGUAUGAGAGUUCUAGAAGGUACAUGAGGAUCACCCAUGUUAGGG [JR_Exclu4_Sub086] (puzzle: Exclusion 4) |  |  | 257 |  |
| GUGAUCUAUCAUGGGAUAAACAUGAGGAUCACCCAUGUAGACAAGUUUUUUGCUCGUCUUAUAAUAAGAUAGAUCAC [Antenna 1 - Jieux - Sensor, turn-off variant 1] (Eterna round: R97, puzzle: Sensor, turn-off variant 1) | 37.2 | 39.4 |  |  |
| GUGCAAUGAGGAUAUACGUAGGUGAAAAUCUGUGUGCUCCUACAUGAGGAUCACCCAUGUAGAAGGCAUGUCAC [LRO-Excl2-16] (puzzle: Exclusion 2) |  |  | 16 |  |
| GUGCAGCGAGGAUAUCCAGACGGGUCCAGUACGUGUCUUGGACUUGAGGAUCACCCAAGUAGAAGGCGUCUCAG [salish99_ex2_r4_611] (Eterna round: R97, puzzle: Exclusion 2) | 50.9 | 114 |  |  |
| GUGCCGCGAGGAUAUACAGACGGGUCCAUUACGUGUCUCGGACUUGAGGAUCACCCAAGUAGAAGGCGUCUCAG [salish99_ex2_r4_625] (Eterna round: R97, puzzle: Exclusion 2) | 51.3 | 40.2 |  |  |
| GUGGCACAUGAGGAUCACCCAUGUCAGGAUAUCGCGUGGUUUUUUUCGGCCGCGCGCGCGAGAAGGGACGUCUU (Eterna round: R96, puzzle: Exclusion 1) | 26.8 | 30.9 |  | apparent KD of MS2 coat protein [1]: 22.2 nM |
| GUGGCACAUGAGGAUCACCCAUGUCAGGAUAUCGCGUGGUUUUUUUCGGCCGCGCGCGCGAGAAGGGACGUCUU (puzzle: Exclusion 1) |  |  | 27.2 |  |
| GUGGGUUACAUGAGGAUCACCCAUGUAUAGUGGGAAAAAAUAUAGGAUAUAAUAUAAAAAUUAUAUUAGAAGGAUAGAGACUAG [AK ExNG3-1] (Eterna round: R96, puzzle: Exclusion NG 3) | 419 | 418 |  | apparent KD of MS2 coat protein [1]: 216 nM |
| GUGGUACAUGAGGAUCACCCAUGUUAGGAUAUCGCGUGAGGUUUUACUUCCGCACACGCGAGAAGGGACGUCUU (puzzle: Exclusion 1) |  |  | 41.4 |  |
| GUGGUACAUGAGGAUCACCCAUGUUAGGAUAUCGCGUGAGGUUUUGCUUCCGCGCGCGCGAGAAGGGACGUCUU (puzzle: Exclusion 1) |  |  | 23.2 |  |
| GUGUAAUGUGAGGAUAUGUGUUUCGUUAGCUGCACAGAAGGCACAACAUGAGGAUCACCCAUGUGGGCAGGGCC [Eternabot (L1) Solution 10] (Eterna round: R97, puzzle: Exclusion 6) | 59.4 | 19 |  |  |
| GUGUACAGAGGAUAUGCACGAGUAGUUACGAAAGUAACUAUACAUGAGGAUCACCCAUGUAGAAGGCUGUACAC [Dot plot directed v3] (puzzle: Exclusion 2) |  |  | 12.2 |  |
| GUGUAGUAAGGAUAUACAUGAGGAUCACCCAUGUGAGUAAGAUAGAAUAAGAUAAAGUGUAGAAGGUAUAGUGU [Excluse me!!! 16 - Jieux - Exclusion 3] (puzzle: Exclusion 3) |  |  | 42.8 | apparent KD of MS2 coat protein [3]: 42.6 nM; apparent KD of MS2 coat protein [4]: 48.9 nM |
| GUGUAGUCAGGAUAUACAUAGGAAGAUAAUAUAAUAUAAGUACAUGAGGAUCACCCAUGUAGAAGGGACAGUGU [Excluse me!! 9 - Jieux - Exclusion 2] (puzzle: Exclusion 2) |  |  | 35.6 |  |

| Sequence | apparent KD of MS2 coat protein (input ligand: FMN 200 uM) [nM] | apparent KD of MS2 coat protein (input ligand: none) [nM] | apparent KD of MS2 coat protein [2] [nM] | further results |
| --- | --- | --- | --- | --- |
| GUGUGCAGAGGAUAUACAGAGGAAAAUAAUAAAUAAUAUUGACAUGAGGAUCACCCAUGUAGAAGGCUGAGUGU [Excluse me!! 25 - Jieux - Exclusion 2] (puzzle: Exclusion 2) |  |  | 37.4 | apparent KD of MS2 coat protein [3]: 38.3 nM; apparent KD of MS2 coat protein [4]: 39.7 nM |
| GUGUUGGUAGGAUAUCCACCGACAAACAUGAGGAUCACCCAUGUGACGCUCCCUUGUCUUGGAGAAGGGCCGGCAU [Riritequla] (puzzle: Exclusion 5) |  |  | 42.4 |  |
| GUUAAACAUGAGGAUCACCCAUGUAAGGAUAUGCUGCGGUAGAGAUGAAGUGAAUGCAGCAGAAGGUACAAUUG [Mat - Mod of JL D54] (puzzle: Exclusion 1) |  |  | 80.5 |  |
| GUUAAACAUGAGGAUCACCCAUGUAAGGAUAUGCUGCGGUCGCGCUGACGUGACUGCAGCAGAAGGUACAAAUG [Mat - Mod of JL D57] (puzzle: Exclusion 1) |  |  | 76.4 |  |
| GUUAAGGUAGGAUAUACGAUAAUAUAGGGUAGAGAUAUAACACAUGAGGAUCACCCAUGUAGAAGGACCAAUUG [Mat - Exclusion 2 - Mod of my Tesla design - D55] (puzzle: Exclusion 2) |  |  | 26.2 |  |
| GUUAAUUGUCACAUGGGUGACAUGAGGAUCACCCAUGUCACAAGCUUUUUGUUCGUCUUAUAAUUAACCCAUGUGAC [Stov1/12-B2] (Eterna round: R97, puzzle: Sensor, turn-off variant 1) | 16 | 14.4 |  |  |
| GUUAGACAUGAGGAUCACCCAUGUGAGGAUAUGAUGAGAAUGAAGUAAGAAGUAGGAAUCAGAAGGCACAUAUG [Mat - Mod of Hyphema D31] (puzzle: Exclusion 1) |  |  | 106 | apparent KD of MS2 coat protein [3]: 177 nM; apparent KD of MS2 coat protein [4]: 132 nM |
| GUUUUAUAUGAAGGAUAUACUUAACAUGAGGAUCACCCAUGUGGUGUUGUGAGUGAGUGAGUUUAGUAGAAGGUCAAUGAUUUU [JMF's solution 77] (Eterna round: R96, puzzle: Exclusion NG 2) | 1660 | 473 |  | apparent KD of MS2 coat protein [1]: 396 nM |
| UAAAACAGAGGAUAUCGCUUGGUAAACAUGAGGAUCACCCAUGUGGUCUCGGUGGAUACCCGAGAAGGCUGAGCGU [Xeraisbece] (Eterna round: R97, puzzle: Exclusion 5) | 19.5 | 19 |  |  |
| UAAAACUGAGGAUAUACAUGAGGAUCACCCAUGUCAAUUGACAGCGGCGUGGCAAAAGGUAGAAGGCAGGCGGU [Lerete] (puzzle: Exclusion 3) |  |  | 176 | apparent KD of MS2 coat protein [3]: 43 nM; apparent KD of MS2 coat protein [4]: 161 nM |
| UAAAAGGUAGGAUAUACGAAAAAAAAGGGUAGAAAAAAAACACAUGAGGAUCACCCAUGUAGAAGGACCAAAAA [salish99_ex2_r3_049] (puzzle: Exclusion 2) |  |  | 38.4 | apparent KD of MS2 coat protein [3]: 137 nM; apparent KD of MS2 coat protein [4]: 38 nM |
| UAAACAAGCUUAAGAUCCUACAUGAGGAUCACCCAUGUGCUCGUCUUGUAACGUACUGUGACGAAAGUCACGGUACG [JL TOV1 3.09] (Eterna round: R97, puzzle: Sensor, turn-off variant 1) | 185 | 228 |  |  |
| UAAAGUCAAGGAUAUGGAAGUCCAAACAUGAGGAUCACCCAUGUAAACACAUUGGGAAGCCCAGAAGGUGGCCGUA [Eternabot (L2) Solution 31] (Eterna round: R97, puzzle: Exclusion 5) | 76.4 | 204 |  |  |
| UAACAGUAAGGAUAUCCAGAUCCAGACAUGAGGAUCACCCAUGUCAAAUACCUUUGACACGGAGAAGGUACGAAAA [EX5 A.26] (Eterna round: R97, puzzle: Exclusion 5) | 53.2 | 51.9 |  |  |
| UAACUACAUGAGGAUCACCCAUGUCAGGAUAUGCCAUUAAAUUAACAUCAACAUACGGGUAGAAGGGACAACGU [1st #2] (Eterna round: R97, puzzle: Exclusion 1) | 22.2 | 25.6 |  |  |
| UAACUUCUUGUAAGGAUAUUGGCGCGAAAGCGAACCGAGAAGGUACAUGAGGAUCACCCAUGUGAAAUAAGAAU [Mod of Zala 14 - Jieux - Brourd's Mod of Exclusion 4] (Eterna round: R97, puzzle: Brourd's mod of Exclusion 4) | 574 | 40.3 |  |  |
| UAAUAGGCAGGAUAUACAUGAGGAUCACCCAUGUAAAUUUUUCGUUUAACUUGAAUGUGUAGAAGGGCCAUAAA [Ex3 #53] (Eterna round: R97, puzzle: Exclusion 3) | 20.6 | 22.6 |  |  |
| UAAUGUAUAUAGGAUAUCUAGCUGGAAACAGCUAGAGAAGGAUGUACAUGAGGAUCACCCAUGUAAAUCAGUGA [Ex6/14-B1] (Eterna round: R97, puzzle: Exclusion 6) | 239 | 55.4 |  |  |
